Laboratory results: patent US20110212097A1
Values belong to the substance of their own block, whether it stands above or below them.

How the values were obtained:
[1] = target: SOD1 oxidized with a mixture of ascorbate and copperchloride (Homo sapiens (Human)) (UniProt P00441); test: ELISA rep1; 3 hr CuCl
[2] = target: SOD1 oxidized with a mixture of ascorbate and copperchloride (Homo sapiens (Human)) (UniProt P00441); test: ELISA mean; 6 hr CuCl
[3] = target: SOD1 oxidized with a mixture of ascorbate and copperchloride (Homo sapiens (Human)) (UniProt P00441); test: ELISA rep2; 6 hr CuCl
[4] = target: SOD1 oxidized with a mixture of ascorbate and copperchloride (Homo sapiens (Human)) (UniProt P00441); test: ELISA mean; 1 hr CuCl
[5] = target: SOD1 oxidized with H2O2 (Homo sapiens (Human)) (UniProt P00441); test: ELISA rep1; 100 uM H2O2
[6] = target: denatured or misfolded SOD1 (SOD1 in denaturation buffer with 6M GdnHCl) (Homo sapiens (Human)) (UniProt P00441); test: ELISA rep3; SOD-Gnd
[7] = target: natively folded SOD1 (SOD1 in PBS) (Homo sapiens (Human)) (UniProt P00441); test: ELISA mean; SOD-PBS
[8] = target: denatured or misfolded SOD1 (SOD1 in denaturation buffer with 6M GdnHCl) (Homo sapiens (Human)) (UniProt P00441); test: ELISA rep2; SOD-Gnd
[9] = target: denatured or misfolded SOD1 (SOD1 in denaturation buffer with 6M GdnHCl) (Homo sapiens (Human)) (UniProt P00441); test: ELISA mean; SOD-Gnd
[10] = target: SOD1 oxidized with a mixture of ascorbate and copperchloride (Homo sapiens (Human)) (UniProt P00441); test: ELISA mean; 0 hr CuCl
BSA control in PBS [11] = target: BSA control in PBS (UniProt P02769); test: ELISA rep1; BSA-PBS
[12] = target: natively folded SOD1 (SOD1 in PBS) (Homo sapiens (Human)) (UniProt P00441); test: ELISA rep1; SOD-PBS
[13] = target: SOD1 oxidized with a mixture of ascorbate and copperchloride (Homo sapiens (Human)) (UniProt P00441); test: ELISA mean; 3 hr CuCl
[14] = target: SOD1 oxidized with H2O2 (Homo sapiens (Human)) (UniProt P00441); test: ELISA mean; 1 mM H2O2
[15] = target: SOD1 oxidized with H2O2 (Homo sapiens (Human)) (UniProt P00441); test: ELISA rep3; 100 uM H2O2
[16] = target: SOD1 oxidized with a mixture of ascorbate and copperchloride (Homo sapiens (Human)) (UniProt P00441); test: ELISA rep1; 6 hr CuCl
[17] = target: SOD1 oxidized with H2O2 (Homo sapiens (Human)) (UniProt P00441); test: ELISA rep2; 100 uM H2O2
[18] = target: SOD1 oxidized with a mixture of ascorbate and copperchloride (Homo sapiens (Human)) (UniProt P00441); test: ELISA rep3; 3 hr CuCl
[19] = target: SOD1 oxidized with H2O2 (Homo sapiens (Human)) (UniProt P00441); test: ELISA rep3; 10 mM H2O2
[20] = target: natively folded SOD1 (SOD1 in PBS) (Homo sapiens (Human)) (UniProt P00441); test: ELISA rep2; SOD-PBS
[21] = target: SOD1 oxidized with a mixture of ascorbate and copperchloride (Homo sapiens (Human)) (UniProt P00441); test: ELISA rep2; 0 hr CuCl
[22] = target: SOD1 oxidized with H2O2 (Homo sapiens (Human)) (UniProt P00441); test: ELISA rep1; 10 mM H2O2
[23] = target: SOD1 oxidized with a mixture of ascorbate and copperchloride (Homo sapiens (Human)) (UniProt P00441); test: ELISA rep3; 1 hr CuCl
[24] = target: SOD1 oxidized with H2O2 (Homo sapiens (Human)) (UniProt P00441); test: ELISA mean; 10 mM H2O2
[25] = target: SOD1 oxidized with a mixture of ascorbate and copperchloride (Homo sapiens (Human)) (UniProt P00441); test: ELISA rep2; 1 hr CuCl
[26] = target: SOD1 oxidized with H2O2 (Homo sapiens (Human)) (UniProt P00441); test: ELISA rep2; 10 mM H2O2
[27] = target: SOD1 oxidized with a mixture of ascorbate and copperchloride (Homo sapiens (Human)) (UniProt P00441); test: ELISA rep2; 3 hr CuCl
[28] = target: SOD1 oxidized with H2O2 (Homo sapiens (Human)) (UniProt P00441); test: ELISA mean; 100 uM H2O2
BSA control in PBS [29] = target: BSA control in PBS (UniProt P02769); test: ELISA rep3; BSA-PBS
[30] = target: SOD1 oxidized with a mixture of ascorbate and copperchloride (Homo sapiens (Human)) (UniProt P00441); test: ELISA rep1; 1 hr CuCl
[31] = target: SOD1 oxidized with H2O2 (Homo sapiens (Human)) (UniProt P00441); test: ELISA rep2; 1 mM H2O2
[32] = target: SOD1 oxidized with a mixture of ascorbate and copperchloride (Homo sapiens (Human)) (UniProt P00441); test: ELISA rep3; 6 hr CuCl
BSA control in PBS [33] = target: BSA control in PBS (UniProt P02769); test: ELISA mean; BSA-PBS
[34] = target: SOD1 oxidized with a mixture of ascorbate and copperchloride (Homo sapiens (Human)) (UniProt P00441); test: ELISA rep3; 0 hr CuCl
[35] = target: SOD1 oxidized with a mixture of ascorbate and copperchloride (Homo sapiens (Human)) (UniProt P00441); test: ELISA rep1; 0 hr CuCl
[36] = target: denatured or misfolded SOD1 (SOD1 in denaturation buffer with 6M GdnHCl) (Homo sapiens (Human)) (UniProt P00441); test: ELISA rep1; SOD-Gnd
BSA control in PBS [37] = target: BSA control in PBS (UniProt P02769); test: ELISA rep2; BSA-PBS
[38] = target: natively folded SOD1 (SOD1 in PBS) (Homo sapiens (Human)) (UniProt P00441); test: ELISA rep3; SOD-PBS
[39] = target: SOD1 oxidized with H2O2 (Homo sapiens (Human)) (UniProt P00441); test: ELISA rep3; 1 mM H2O2
[40] = target: SOD1 oxidized with H2O2 (Homo sapiens (Human)) (UniProt P00441); test: ELISA rep1; 1 mM H2O2
[41] = target: denatured or misfolded SOD1 (SOD1 in denaturation buffer with 6M GdnHCl) (Homo sapiens (Human)) (UniProt P00441); test: ELISA, unfolded vs natively folded SOD1
BSA control in PBS [42] = target: BSA control in PBS (UniProt P02769); test: ELISA mean
[43] = target: denatured or misfolded SOD1 (SOD1 in denaturation buffer with 6M GdnHCl) (Homo sapiens (Human)) (UniProt P00441); test: ELISA mean
[44] = target: natively folded SOD1 (SOD1 in PBS) (Homo sapiens (Human)) (UniProt P00441); test: ELISA mean
BSA control in GdnHCl [45] = target: BSA control in GdnHCl (UniProt P02769); test: ELISA mean
BSA control in PBS [46] = target: BSA control in PBS (UniProt P02769); test: ELISA rep2
[47] = target: denatured or misfolded SOD1 (SOD1 in denaturation buffer with 6M GdnHCl) (Homo sapiens (Human)) (UniProt P00441); test: ELISA rep2
[48] = target: natively folded SOD1 (SOD1 in PBS) (Homo sapiens (Human)) (UniProt P00441); test: ELISA rep2
BSA control in GdnHCl [49] = target: BSA control in GdnHCl (UniProt P02769); test: ELISA rep2
[50] = target: DSE-2-BSA antigen (human); test: indirect ELISA Exp #2
[51] = target: denatured or misfolded SOD1 (SOD1 in denaturation buffer with 6M GdnHCl) (Homo sapiens (Human)) (UniProt P00441); test: ELISA, SOD1 minus BSA
[52] = target: natively folded SOD1 (SOD1 in PBS) (Homo sapiens (Human)) (UniProt P00441); test: ELISA, SOD1 minus BSA
[53] = target: DSE-2-BSA antigen (human); test: indirect ELISA Exp #1
[54] = target: human transferrin (human) (UniProt P02787); test: indirect ELISA, control antigen
UniProt P02787, sequence (P02787 20-698 limits assumed): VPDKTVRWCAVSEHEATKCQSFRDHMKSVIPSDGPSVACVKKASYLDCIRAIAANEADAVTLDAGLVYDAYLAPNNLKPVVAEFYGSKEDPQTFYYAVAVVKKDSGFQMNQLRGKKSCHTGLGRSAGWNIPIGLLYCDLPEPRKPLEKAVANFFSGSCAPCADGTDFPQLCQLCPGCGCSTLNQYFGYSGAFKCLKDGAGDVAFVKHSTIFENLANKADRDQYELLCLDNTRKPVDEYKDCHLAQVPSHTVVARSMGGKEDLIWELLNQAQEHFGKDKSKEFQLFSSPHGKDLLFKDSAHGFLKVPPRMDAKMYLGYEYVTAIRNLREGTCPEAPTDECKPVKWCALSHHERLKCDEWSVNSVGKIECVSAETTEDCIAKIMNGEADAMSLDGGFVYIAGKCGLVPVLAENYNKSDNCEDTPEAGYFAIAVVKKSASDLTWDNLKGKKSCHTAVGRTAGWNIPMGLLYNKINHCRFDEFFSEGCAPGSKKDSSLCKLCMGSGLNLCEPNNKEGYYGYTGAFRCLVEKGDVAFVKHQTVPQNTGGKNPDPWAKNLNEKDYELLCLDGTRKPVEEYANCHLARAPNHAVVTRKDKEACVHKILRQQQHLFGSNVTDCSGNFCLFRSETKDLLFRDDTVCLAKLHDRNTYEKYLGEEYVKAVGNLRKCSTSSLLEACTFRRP

BSA control in PBS [55] = target: BSA control in PBS (UniProt P02769); test: ELISA rep1
[56] = target: denatured or misfolded SOD1 (SOD1 in denaturation buffer with 6M GdnHCl) (Homo sapiens (Human)) (UniProt P00441); test: ELISA rep1
[57] = target: natively folded SOD1 (SOD1 in PBS) (Homo sapiens (Human)) (UniProt P00441); test: ELISA rep1
BSA control in GdnHCl [58] = target: BSA control in GdnHCl (UniProt P02769); test: ELISA rep1

absorbance [1]: 1.06
absorbance [2]: 1.02
absorbance [3]: 0.987
absorbance [4]: 1.03
absorbance [5]: 0.489
absorbance [6]: 1.23
absorbance [7]: 0.369
absorbance [8]: 1.25
absorbance [9]: 1.24
absorbance [10]: 0.668
absorbance (BSA control in PBS [11]): 0.12
absorbance [12]: 0.357
absorbance [13]: 1.07
absorbance [14]: 0.77
absorbance [15]: 0.453
absorbance [16]: 1.04
absorbance [17]: 0.476
absorbance [18]: 1.08
absorbance [19]: 0.878
absorbance [20]: 0.362
absorbance [21]: 0.669
absorbance [22]: 0.836
absorbance [23]: 1.03
absorbance [24]: 0.851
absorbance [25]: 1.03
absorbance [26]: 0.84
absorbance [27]: 1.06
absorbance [28]: 0.473
absorbance (BSA control in PBS [29]): 0.091
absorbance [30]: 1.02
absorbance [31]: 0.752
absorbance [32]: 1.04
absorbance (BSA control in PBS [33]): 0.103
absorbance [34]: 0.664
absorbance [35]: 0.67
absorbance [36]: 1.24
absorbance (BSA control in PBS [37]): 0.098
absorbance [38]: 0.389
absorbance [39]: 0.781
absorbance [40]: 0.776
Substance: anti-DSE2 IgG mAb clone 10E11C11 (antibody)

absorbance [1]: 1.72
U/F [41]: 7.93 fold
absorbance [2]: 1.43
absorbance [3]: 1.49
absorbance [4]: 1.51
absorbance [5]: 0.436
absorbance [7]: 0.338
absorbance [8]: 2.29
absorbance [9]: 2.29
OD450 (BSA control in PBS [42]): 0.156 OD450
OD450 [43]: 2.15 OD450
OD450 [44]: 0.41 OD450
OD450 (BSA control in GdnHCl [45]): 0.164 OD450
absorbance [10]: 0.558
absorbance (BSA control in PBS [11]): 0.078
absorbance [12]: 0.34
absorbance [13]: 1.67
OD450 (BSA control in PBS [46]): 0.15 OD450
OD450 [47]: 2.1 OD450
OD450 [48]: 0.563 OD450
OD450 (BSA control in GdnHCl [49]): 0.162 OD450
absorbance [14]: 0.731
absorbance [16]: 1.38
absorbance [17]: 0.425
absorbance [20]: 0.335
absorbance [21]: 0.59
OD450 [50]: 1.91 OD450
absorbance [22]: 0.763
S-N (U) [51]: 1.99 OD450
S-N (F) [52]: 0.251 OD450
OD450 [53]: 1.98 OD450
absorbance [24]: 0.745
absorbance [25]: 1.44
absorbance [26]: 0.726
absorbance [27]: 1.62
OD450 [54]: 0.081 OD450
absorbance [28]: 0.43
absorbance [30]: 1.59
absorbance [31]: 0.717
absorbance (BSA control in PBS [33]): 0.077
absorbance [35]: 0.527
absorbance [36]: 2.29
absorbance (BSA control in PBS [37]): 0.076
OD450 (BSA control in PBS [55]): 0.161 OD450
OD450 [56]: 2.19 OD450
OD450 [57]: 0.257 OD450
OD450 (BSA control in GdnHCl [58]): 0.165 OD450
absorbance [40]: 0.744
Substance: anti-DSE2 hybridoma clone 3H1 (antibody)
